Laboratory results: the supplement of paper PMC7125110
± gives the standard error. For some of these results: This sample holds only a part of the variants without activity.

B1: glmS ribozyme (parent)
chain: AUAAAAGCGCCAGAACUACAGAAAUGUAGUUGACGAGGAGGAGGUUUAUCGAAUUUUCGGCGGAUGCCUCCAAA

Tests used:
Details in all cases: with glucosamine-6-phosphate
glucosamine-6-phosphate [1] = variants of: B1; assay: kcat; higher = faster cleavage; RNA array
In short: (§1)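 kobs was derived by fitting per-tile medians to one- or two-exponential decays after normalising signals to baseline and to non-cleaving reference variants. Those signals came from barcoded ribozyme variants transcribed in situ by E. coli RNA polymerase on sequenced MiSeq chips, followed through a hybridised Cy3 probe at 37 °C and imaged over ~14 h. Glucosamine-6-phosphate (40 μM to 10 mM) in HEPES/KCl/Mg(OAc)2 buffer was flowed in. Weighted Michaelis–Menten fits across concentrations then gave kcat and KM.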

glucosamine-6-phosphate [2] = variants of: B1; assay: KM; higher = weaker cofactor use; RNA array
In short: as §1

glucosamine-6-phosphate [3] = variants of: B1; assay: self-cleavage kobs at 640 uM GlcN6P; higher = faster cleavage; RNA array
In short: as §1

glucosamine-6-phosphate [4] = variants of: B1; assay: self-cleavage kobs at 2500 uM GlcN6P; higher = faster cleavage; RNA array
In short: as §1

glucosamine-6-phosphate [5] = variants of: B1; assay: self-cleavage kobs at 10000 uM GlcN6P; higher = faster cleavage; RNA array
In short: as §1

glucosamine-6-phosphate [6] = variants of: B1; assay: self-cleavage kobs at 160 uM GlcN6P; higher = faster cleavage; RNA array
In short: as §1

glucosamine-6-phosphate [7] = variants of: B1; assay: self-cleavage kobs at 40 uM GlcN6P; higher = faster cleavage; RNA array
In short: as §1

Variant | kcat (glucosamine-6-phosphate [1]) | KM (glucosamine-6-phosphate [2]) | self-cleavage kobs at 640 uM GlcN6P (glucosamine-6-phosphate [3]) | self-cleavage kobs at 2500 uM GlcN6P (glucosamine-6-phosphate [4]) | self-cleavage kobs at 10000 uM GlcN6P (glucosamine-6-phosphate [5]) | self-cleavage kobs at 160 uM GlcN6P (glucosamine-6-phosphate [6]) | self-cleavage kobs at 40 uM GlcN6P (glucosamine-6-phosphate [7])
U54C A64C | 0.000257 ± 3.3e-05 s⁻¹ | 3.56 ± 1 mM | 3.19e-05 ± 1e-05 s⁻¹ | 0.000124 ± 2e-05 s⁻¹ | 0.000185 ± 2.1e-05 s⁻¹ |  | 
A12U G41C | 0.000373 ± 8.7e-05 s⁻¹ | 1.83 ± 0.77 mM | 0.000108 ± 1.2e-05 s⁻¹ | 0.000168 ± 2.7e-05 s⁻¹ | 0.000373 ± 5e-05 s⁻¹ | 2.68e-05 ± 1.1e-05 s⁻¹ | 
C10U G35C | < 1e-05 s⁻¹ |  | < 1e-05 s⁻¹ |  |  | < 1e-05 s⁻¹ | < 1e-05 s⁻¹
A48G U55A | 0.000106 ± 2.6e-06 s⁻¹ | 1.16 ± 0.18 mM |  | 7.8e-05 ± 3.7e-05 s⁻¹ | 9.5e-05 ± 8.9e-06 s⁻¹ |  | 
C50A G66C C67U | 1.02e-05 ± 2.9e-06 s⁻¹ |  |  |  |  |  | 
U30C G32C | 0.000399 ± 5.8e-05 s⁻¹ | 3.5 ± 1.1 mM | 5.99e-05 ± 1.9e-05 s⁻¹ | 0.000157 ± 3e-05 s⁻¹ | 0.0003 ± 3.4e-05 s⁻¹ |  | 
A12G U56G | 0.000904 ± 9.3e-05 s⁻¹ | 6.61 ± 0.95 mM | 8.35e-05 ± 8.6e-06 s⁻¹ | 0.00024 ± 2.2e-05 s⁻¹ | 0.000553 ± 5.7e-05 s⁻¹ |  | 
A6U U30C C68U | 2.13e-05 ± 7.2e-06 s⁻¹ |  | < 1e-05 s⁻¹ |  |  |  | 
A12U C50U C67G | 4.36e-05 ± 2.1e-05 s⁻¹ |  | 6.16e-05 ± 2.1e-05 s⁻¹ |  |  |  | 
C50A G59A | < 1e-05 s⁻¹ |  | < 1e-05 s⁻¹ |  |  |  | 
U65A C71G | 0.000477 ± 0.00013 s⁻¹ | 1.71 ± 0.72 mM | 0.000124 ± 1.6e-05 s⁻¹ | 0.000382 ± 9.3e-05 s⁻¹ | 0.000383 ± 8.9e-05 s⁻¹ | 4.31e-05 ± 1.1e-05 s⁻¹ | 
C34A G51U | 0.000727 ± 0.00012 s⁻¹ | 3.28 ± 1.2 mM | 0.000141 ± 3e-05 s⁻¹ | 0.000354 ± 6.1e-05 s⁻¹ | 0.000537 ± 4.9e-05 s⁻¹ |  | 
G40A U57A | 3.08e-05 ± 6.4e-06 s⁻¹ |  |  | 3.99e-05 ± 1.3e-05 s⁻¹ | 2.63e-05 ± 9.5e-06 s⁻¹ | < 1e-05 s⁻¹ | < 1e-05 s⁻¹
A12G A42U | 4.92e-05 ± 2.6e-06 s⁻¹ |  |  |  | 1.63e-05 ± 6.6e-06 s⁻¹ |  | 
G37C C67A | < 1e-05 s⁻¹ | 2.8 ± 0.95 mM |  |  |  | < 1e-05 s⁻¹ | 
G29C C71A | 0.000154 ± 3.1e-05 s⁻¹ |  | 0.000104 ± 1.9e-05 s⁻¹ | 0.000119 ± 2.7e-05 s⁻¹ | 0.000253 ± 7.8e-05 s⁻¹ |  | 
G29C C71G | 8.64e-05 ± 1.2e-05 s⁻¹ |  | 3.96e-05 ± 1.4e-05 s⁻¹ | 8.9e-05 ± 1.2e-05 s⁻¹ | 8.49e-05 ± 1e-05 s⁻¹ | 5.06e-05 ± 1.3e-05 s⁻¹ | 
G32A U55A | 0.00351 ± 0.00053 s⁻¹ | 3.54 ± 0.69 mM | 0.000541 ± 5.3e-05 s⁻¹ | 0.00144 ± 0.00022 s⁻¹ | 0.00261 ± 0.00038 s⁻¹ | 0.00014 ± 1.7e-05 s⁻¹ | 5.08e-05 ± 9.5e-06 s⁻¹
